Source: patent publication US20220073643A1 (NANJING GENSCRIPT BIOTECH, published 2022)
“And” between values parts separate entries of the source, which are not always exact repeats. Equal values may be shown once.

Each binder was assayed against human Claudin18.2 (human) (assay: cell-based or functional assay).

Binder | CDC % Relative activity [%] | CDC EC50
231H4G11 (antibody, V domains shown) VH: QAYLQQSGAELVRSGASVKMSCKASGYTFTSHNIHWVKQTPGQGLEWIGYISPGNGYTNYNQKFRGKATLTADTSSSTAYMQISSLTSEDSAVYFCTRDYYGNSFAYWGQGTLVTVSA VL: DIVMTQSPSSLTEKAGERVSMSCKSSQSLFNSGSQKNYLTWYQQKPGQPPKLLIYWASTRESGVPDRFSGSGSGTDFTLTISSVQAEDLAVYYCQNNYWFPFTFGAGTKLELK | 88 | 1.48 mg/L
217D9G2 (antibody, V domains shown) VH: QAYLQQSGAELVRSGASVKMSCKASGFTFTSYNIHWVKQTPGQGLEWIGYISPGNGGSNYNLNFKDKATLTAATSSTTAYMQISSLTSEDSAVYFCATGRGFAYWGQGTLVTVSA VL: DIVMTQSPSSLTVTPGEKVTMSCRSSQSLFNSGNQKNYLIWYQQKPGQPPKLLIYRASTRDSGVPDRFTGSGSGTDFTLTISNVQAEDLAVYYCQNDYSYPLTFGAGTKLELK | 707 | 0.271 mg/L
185F2G12 (antibody, V domains shown) VH: QAYLQQSGAELVRSGASVKMSCKASGYTFTSYNMHWVRQTPGQGLEWIGYIYPGNGGTNYSQKFKGKASLTADTSSTTAYMQISSLTSEDSAVYFCATGRGFAYWGQGTLVTVSA VL: DIVMTQSPSSLTVTAGEKVTLSCKSSQSLFNTGNQKNYLTWYQQKPGQPPKLLIFRASTRESGVPDRFTGSGFGTDFTLTISSVQAEDLAVYYCQNDFSYPLTFGAGTKLELK | 543 | 0.291 mg/L
222B6G5 (antibody, V domains shown) VH: QTYLQQSGAELVRSGASVKMSCKASGYTFTSYNIHWVKQTPGQGLEWIGYISPGNGGTYYNLKFKDKATLTTATSSSTAYMQISSLTSEDSAVYFCATGRGFAYWGQGTLVTVSA VL: DIVMTQSPSSLTVTPGEKVTMSCKSSQSLFNSGNQKNYLIWYQQKPGQPPKLLIYRASTRDSGVPDRFTGSGSGTDFTLTISNVQAEDLAVYYCQNDYSYPLTFGAGTKLELK | – | 0.278 mg/L and 0.259 mg/L
213B10A4 (antibody, V domains shown) VH: QAYVQQSGAELVRSGASVKMSCRASGYTFTSYNMHWVKQTPGQGLEWIGYIYPGNGGTYYNQKFKGKATLTADTSSSTAYMQISSLTSEDSAVYFCATGRGFAYWGQGTLVTVSA VL: DIVMTQSPSSLTVTAGEKVTMSCKSSQSLLNSGNQKNYLTWYQQKPGQPPKLLIYRASTRESGVPDRFTGSGFGTDFTLTISSVQAEDLAVYYCQNDYSYPLTFGAGTKLELK | 121 | 1.59 mg/L
219F9B8 (antibody, V domains shown) VH: QAYLQQSGAELVRSGASVRMSCKASGYTFTSYNMHWVKQTPGQGLEWIGYIYPGNGHTNYNQKFKGKATLTADTSSSTAYMQISSLTSEDSAVYFCATGRGFAYWGQGTLVTVSA VL: DIVMTQSPSSLTVTAGEKVTMSCKSSQSLLNSGNQKNYLTWYQQKPGQPPKLLIYRASTRESGVPDRFTGSGSGTDFTLTISSVQAEDLAVYYCQNDYSYPLTFGVGTKLELK | 603 | 0.318 mg/L
226A4B5 (antibody, V domains shown) VH: QAYLQQSGAELVRSGASVRMSCKASGFTFTSYNIHWVKQTPGQGLEWIGYIYPGSGGSNYNQKFMGKATLTADTSSSTVYMQISSLTSEDSAVYFCATGRGFAYWGQGTLVTVSA VL: DIVMTQSPSSLTVTAGEKVTMSCKSSQSLFNSGNQKNYLTWYQQKPGQPPKLLIYRASTRESGVPDRFTGSGSGTDFTLTISSVQAEDLAVYYCQNDYSYPLTFGTGTKLELK | 73 | 1.78 mg/L
231C11E9 (antibody, V domains shown) VH: EVMLVESGGGLVKPGGSLKLSCAASGFTFNNYVMCWVRQTPEKRLEWVATISSGNFYTYYPDSVKGRFTISRDNAKNTLYLQMSSLRSEDTAIYYCASLGRGNALDNWGQGTSVTVSS VL: DIVMTQSPASLTVTAKEKVTMSCRSSQSLLNSGNQKNYLTWYQQKPGQPPKLLIYWASTRESGVPDRFTGSGSGTDFTLTISSVQAEDLAVYYCQNDYSYPFTFGSGTKLEIK | 83.7 | 1.55 mg/L
186F7E10 (antibody, V domains shown) VH: EVMLVESGGGLVKPGGSLKLSCAASRFTLNSYAMSWIRQTPEKKLEWVATITSGVSHTYYFDSVKGRFTISRDTAKNTLNLQMNSLRSEDTAVYYCARLYYGNSLDYWGQGTSVTVSS VL: DIVMTQSPSSLTVTAGEKVTVSCKSSQSLLNSGNQKNYLTWYQQKPGQPPKLLIYWASTRESGVPDRFTGSGSGTDFTLTISSVQSEDLAVYYCQNNYIYPLTFGAGTTLELK | 124 | 1.27 mg/L

More lines, now with the values ahead:

CDC % Relative activity [%] | CDC EC50 | Binder
88.9 | 1.46 mg/L | 232D7C8 (antibody, V domains shown) VH: QAYLQQSGAELVRSGASVKMSCKASGYTFTSHNMHWVKQTPGQGLEWIGYIYPGNGGTNYNQKFKGKATLTADTSSSTAYMQISSLTSEDSAVYFCARDYFGNSFAYWGQGTLVTVSA VL: DILMTQSPSSLTATAGEKVSMSCKSSQSLFNSGNQRNYLTWYQQRPGQPPKLLIYWASTRESGVPDRFTGSGSGTDFTLTISSVQAEDLAVYYCQNDYRYPFTFGAGTKLELK
70.2 | 2.87 mg/L | 430B3F1 (antibody, V domains shown) VH: DVQLVESGGGLVQPGGSRKLSCAASGFTFSGFGMHWIRQTPEKGLEWVAYISSGGRPIYYADTVQGRFTISRDNPKNTLFLQMTSLRSEDTAMYFCARFYYGNSFDHWGQGTLVTISS VL: DIVMTQSPSFLTVTAGEKVTMSCKSSQSLLNSGNQKNYLTWYQQKPGQPPKLLIYWASTRESGVPDRFTGSGSGTDFTLTISSVQAEDLALYYCQNAYSFPLTFGAGTKLELK
629 | 0.221 mg/L | 237D2A4 (antibody, V domains shown) VH: QVQLKESGPGLVAPSQSLSITCTVSGFSLTSYGVSWVRQPPGKGLEWLGVIWGDGSTNYHSTLISRLRISKDKSKSQVFLKLNSLQTDDTATYYCAKAGRGNALDYWGQGTSVTVSS VL: DIVMTQSPSSLTVTAGEKVTMSCKSSQSLLNSGNQKNYLTWYQQKPGQPPKLLIYWASTRESGVPDRFTGSGSGTDFTLTISSVQAEDLAVYYCQNDYSFPLTFGAGTKLELK
62 | 2.1 mg/L | 234A10F7 (antibody, V domains shown) VH: QVQLQQSGAELVKPGASVKLSCKASGYTFTSFGINWLRQRPEQGLEWIGWIFPGDGNSKYNENFKGKATLTTDKSSSTAYMQLTRLTSEDSAVYFCARFYYGNSFAYWGQGTLVTVSA VL: DIVMTQSPSSLTVTTGQKVTMSCKSSQSLLNSGNQKNYLTWYQQKPGQPPKLLIYWAATRESGVPDRFTGSGSGTDFTLTISSVQAEDLAVYYCQNDYFYPFTFGAGTKLELK
175 | 0.794 mg/L | 234C9G5 (antibody, V domains shown) VH: QAYLQQSGAELVRSGASVKMSCKASGYAFTSHNMHWVKQTPGQGLEWIGYISPGNGYTNYNQKFRGKATLTADTSSSTAYMQIGSLTSEDSAVYFCTRDYYGNSFAYWGQGTLVTVSA VL: DIVMTQSPSSLTEKAGERVSMSCKSSQSLFNSGNQKNYLTWYQQKPGQPPKLLIYWASTRESGVPDRFTGSGSGTDFTLTISSVQAEDLAVYYCQNNYWFPFTFGAGTKLELK
126 | 1.1 mg/L | 234E1F12 (antibody, V domains shown) VH: QAYLQQSGAELVRSGASVKMSCKASGYTFTSHNMHWVKQTPRQGLEWIGYIYPGNGDTNYNQKFKGKATLTADTSSSTAYMQISSLTSEDSAVYFCTRDYYGNSFAYWGQGTLVTVSA VL: DIVMTQSPSSLTEKAGERVSMSCKSSQSLFNSGNQKNYLTWYQQKPGQPPKLLIYWASTRESGVPDRFTGSGSGTDFTLTISSVQAEDLAVYYCQNAYWYPFTFGAGTKLELK
226 | 0.575 mg/L | 232C5E3 (antibody, V domains shown) VH: QAYLQQSGAELVRSGASVKMSCKASGYTFTSHNIHWIKQTPGKGLEWIGYIYPGNGGTNYNQKFKAKATLTADTSSSTAYMQISSLTSEDSAVYFCARDYYGNSFAYWGQGTLVTVSA VL: DIMMTQSPSSLTETAGEKVSMSCKSSQSLLNSGNQKNYLTWYQQKPGQPPKLLIYWASTRESGVPDRFSGSGSGTDFTLTISSVQAEDLAVYYCQNGYRFPFTFGAGTKLELK
87.3 | 1.49 mg/L | 233D5E5 (antibody, V domains shown) VH: QAYLQQSGAELVRSGASVKMSCKASGYTFTSHNMHWVKQTPRQGLEWIGYIYPGNGDTNYNQKFKGKATLTADTSSSTAYMQISSLTSEDSAVYFCTRDYYGNSFAYWGQGTLVTVSA VL: DIVMTQSPSSLTEKAGERVSMSCKSSQSLFNSGNQKNYLTWYQQKPGQPPKLLIYWASTRESGVPDRFTGSGSGTDFTLTISSVQAEDLAVYYCQNAYWYPFTFGAGTKLELK
74.9 | 1.74 mg/L | 232F1E4 (antibody, V domains shown) VH: QVQLKESGPGLVAPSQSLSITCTVSGFALTTYGVSWVRQPPGKGLEWLGVIWGDGSTHYHSALISRLSIRKDNSKSQVFLKLNSLQTDDTATYYCAKPGRGNAMDYWGQGTSVTVSS VL: DIVMSQSPSSLTVTAGEKVTMSCKSSQSLLNSGNQKNYLTWYQQKPGQSPKLLIYWASTRESGVPDRFTGSGSGTDFTLTISSMQAEDLAVYYCQNDYIYPLTFGAGTMLELK
485 | 0.287 mg/L | 234B9D4 (antibody, V domains shown) VH: EIQLQQSGPDLMKPGSSVKISCTASGYSFTSYYIHWVKQSHGKTLEWIGYIDPFNGGTRYNQKFEGKAALTVDKSSTTAYMHLTSLTSDDSAVYYCASLRFFTYWGQGTLVTVSA VL: DIVMTQSPSSLTVTAGEKVTMTCKSSQSLLNSGNQENYLTWYQQKPGQPPKLLISRASTRQSGVPDRFTGSGSGTDFTLTISSVQAEDLAVYYCQNDYSYPLTFGAGTKLELK
137 | 1.01 mg/L | 235A10C9 (antibody, V domains shown) VH: QAYLQQSGAELVRSGASVKMSCKASGYTFASHNMHWVKQTPGQGLEWIGYIYPGNSGTKYNQKFTGKATLTADTSSSTAYMQITSLTSEDSAVYFCARDYYGNSFAYWGQGTLVTVSA VL: DIVMTQSPSSLTEKAGEKVSMRCKSSQSLLNSGNQKNYLTWYQQKPGQPPKLLIYWASTRESGVPDRFTGSGSGTDFTLTISSVQADDLAVYYCQNDYMFPFTFGAGTKLELK
